Molecular target: T1, GST-MAZ (UniProt P56270 1-477)
T1 sequence: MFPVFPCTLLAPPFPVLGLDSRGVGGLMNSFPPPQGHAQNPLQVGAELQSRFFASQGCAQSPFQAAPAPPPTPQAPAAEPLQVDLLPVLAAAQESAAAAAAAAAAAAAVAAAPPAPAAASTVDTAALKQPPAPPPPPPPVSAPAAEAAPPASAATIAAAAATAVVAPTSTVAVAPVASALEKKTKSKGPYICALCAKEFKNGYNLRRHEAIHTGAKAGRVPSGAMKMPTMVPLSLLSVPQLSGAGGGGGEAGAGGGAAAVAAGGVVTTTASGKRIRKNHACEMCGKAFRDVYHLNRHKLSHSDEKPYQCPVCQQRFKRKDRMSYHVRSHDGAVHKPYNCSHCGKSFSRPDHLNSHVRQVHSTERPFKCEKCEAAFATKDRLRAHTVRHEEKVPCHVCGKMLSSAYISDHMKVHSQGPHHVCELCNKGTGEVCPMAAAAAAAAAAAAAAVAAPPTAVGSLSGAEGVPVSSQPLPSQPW
Assay: EMSA; EMSA: 10 mM Tris-HCl pH 7.5, 50 mM NaCl, 5 mM MgCl2, 1 mM EDTA, 10% glycerol, 1 ug poly(dI-dC), 30 C 30 min; DAPA: 20 mM HEPES pH 7.6, 10 mM (NH4)2SO4, 1 mM EDTA, 1 mM DTT, 1% Tween 20, 100 mM KCl, 4 C
Conditions: protein: recombinant; label: 32P 5' end; blunt

B1: wt 34-nt EMSA probe (dsDNA)
DNA 1: GCCAAGAGCCAGACCCTCCCTCTGGGCTCTGCTGGCCCA
DNA 2: TGGGCCAGCAGAGCCCAGAGGGAGGGTCTGGCTCTTGGC
  binding result: binds

Source: publication PMC2174947, “Transcriptional regulation of human eosinophil RNases by an evolutionary- conserved sequence motif in primate genome”
